Data: PMC12416549 (2024)

Target: T1, TNFR1 (Homo sapiens, UniProt P19438)
T1 chain: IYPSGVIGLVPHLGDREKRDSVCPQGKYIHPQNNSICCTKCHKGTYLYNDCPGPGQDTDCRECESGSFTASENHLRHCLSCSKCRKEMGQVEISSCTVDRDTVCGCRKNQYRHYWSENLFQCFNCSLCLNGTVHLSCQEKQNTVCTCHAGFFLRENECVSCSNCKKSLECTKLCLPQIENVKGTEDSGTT
Test: yeast display SC50

B1: I49R (designed binder)
chain: MTLQELLREEALRRAEAEAFRYALELLAEKFPEQKEYLLDLAEEIESQRRSLSGVDVEDVRKFLDKEWAWVKELLAEHPAELAEVEAARAARLAELRAEVEAKVAA
apparent Kd (screen): 0.593 nM

B2: S47G (designed binder)
chain: MTLQELLREEALRRAEAEAFRYALELLAEKFPEQKEYLLDLAEEIEGQIRSLSGVDVEDVRKFLDKEWAWVKELLAEHPAELAEVEAARAARLAELRAEVEAKVAA
apparent Kd (screen): 1.27 nM

B3: R21I (designed binder)
chain: MTLQELLREEALRRAEAEAFIYALELLAEKFPEQKEYLLDLAEEIESQIRSLSGVDVEDVRKFLDKEWAWVKELLAEHPAELAEVEAARAARLAELRAEVEAKVAA
apparent Kd (screen): 0.49 nM

B4: K30I (designed binder)
chain: MTLQELLREEALRRAEAEAFRYALELLAEIFPEQKEYLLDLAEEIESQIRSLSGVDVEDVRKFLDKEWAWVKELLAEHPAELAEVEAARAARLAELRAEVEAKVAA
apparent Kd (screen): 0.49 nM

B5: S47E (designed binder)
chain: MTLQELLREEALRRAEAEAFRYALELLAEKFPEQKEYLLDLAEEIEEQIRSLSGVDVEDVRKFLDKEWAWVKELLAEHPAELAEVEAARAARLAELRAEVEAKVAA
apparent Kd (screen): 0.49 nM

B6: E33L (designed binder)
chain: MTLQELLREEALRRAEAEAFRYALELLAEKFPLQKEYLLDLAEEIESQIRSLSGVDVEDVRKFLDKEWAWVKELLAEHPAELAEVEAARAARLAELRAEVEAKVAA
apparent Kd (screen): 0.653 nM

B7: E43T (designed binder)
chain: MTLQELLREEALRRAEAEAFRYALELLAEKFPEQKEYLLDLATEIESQIRSLSGVDVEDVRKFLDKEWAWVKELLAEHPAELAEVEAARAARLAELRAEVEAKVAA
apparent Kd (screen): 0.79 nM

B8: T2A (designed binder)
chain: MALQELLREEALRRAEAEAFRYALELLAEKFPEQKEYLLDLAEEIESQIRSLSGVDVEDVRKFLDKEWAWVKELLAEHPAELAEVEAARAARLAELRAEVEAKVAA
apparent Kd (screen): 0.79 nM

B9: E36K (designed binder)
chain: MTLQELLREEALRRAEAEAFRYALELLAEKFPEQKKYLLDLAEEIESQIRSLSGVDVEDVRKFLDKEWAWVKELLAEHPAELAEVEAARAARLAELRAEVEAKVAA
apparent Kd (screen): 3.99 nM

B10: V60H (designed binder)
chain: MTLQELLREEALRRAEAEAFRYALELLAEKFPEQKEYLLDLAEEIESQIRSLSGVDVEDHRKFLDKEWAWVKELLAEHPAELAEVEAARAARLAELRAEVEAKVAA
apparent Kd (screen): 1.27 nM

B11: A94L (designed binder)
chain: MTLQELLREEALRRAEAEAFRYALELLAEKFPEQKEYLLDLAEEIESQIRSLSGVDVEDVRKFLDKEWAWVKELLAEHPAELAEVEAARAARLLELRAEVEAKVAA
apparent Kd (screen): 0.956 nM

B12: V85A (designed binder)
chain: MTLQELLREEALRRAEAEAFRYALELLAEKFPEQKEYLLDLAEEIESQIRSLSGVDVEDVRKFLDKEWAWVKELLAEHPAELAEAEAARAARLAELRAEVEAKVAA
apparent Kd (screen): 0.79 nM

B13: K35S (designed binder)
chain: MTLQELLREEALRRAEAEAFRYALELLAEKFPEQSEYLLDLAEEIESQIRSLSGVDVEDVRKFLDKEWAWVKELLAEHPAELAEVEAARAARLAELRAEVEAKVAA
apparent Kd (screen): 0.653 nM

B14: E46Y (designed binder)
chain: MTLQELLREEALRRAEAEAFRYALELLAEKFPEQKEYLLDLAEEIYSQIRSLSGVDVEDVRKFLDKEWAWVKELLAEHPAELAEVEAARAARLAELRAEVEAKVAA
apparent Kd (screen): 0.539 nM
